In US20060134087A1, “ITI-D1 Kunitz domain mutants as hNE inhibitors” (Dyax Corp., priority 1988, published 2006):
Where two headings read alike, the source gives them in different places. Ends that are not written are not given here.

How the values were obtained:
[1] = biological target: T1, agarose-immobilized hNE beads (Homo sapiens, UniProt P08246); assay: pH fractionation of display phage on agarose-immobilized hNE beads; assay type: binding; conditions: range of the affinity class
T1 sequence (P08246 30-267): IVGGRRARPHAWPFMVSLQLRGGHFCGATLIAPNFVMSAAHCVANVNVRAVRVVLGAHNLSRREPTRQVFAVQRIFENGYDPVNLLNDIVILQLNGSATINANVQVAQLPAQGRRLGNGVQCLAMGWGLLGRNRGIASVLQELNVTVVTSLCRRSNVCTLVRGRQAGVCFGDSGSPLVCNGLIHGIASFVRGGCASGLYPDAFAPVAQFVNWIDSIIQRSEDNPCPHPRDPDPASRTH
Description: For the purpose of simultaneously assessing the affinity of a large number of different BPTI and ITI-D1 muteins, DNA sequences encoding the BPTI or ITI-D1 was incorporated into the genome of the bacteriophage M13. […] Alterations in the KuDom amino acid sequence were introduced. Each pure population of phage displaying a particular KuDom was characterized with regard to its interactions with immobilized hNE or hCG. Based on comparison to the pH elution profiles of phage displaying other KuDoms of known affinities for the particular protease, mutant KuDoms having high affinity for the target proteases were identified. Subsequently, the sequences of these mutant KuDoms were determined (typically by sequencing the corresponding DNA sequence).
To test if phage displaying the ITI-D1::III fusion protein interact strongly with the proteases human neutrophil elastase (hNE), aliquots of display phage were incubated with agarose-immobilized hNE beads (“hNE beads”). The beads were washed and bound phage eluted by pH fractionation as described in U.S. Pat. No. 5,223,409. The pHs used in the step gradient were 7.0, 6.0, 5.5, 5.0, 4.5, 4.0, 3.5, 3.0, 2.5, and 2.0. Following elution and neutralization, the various input, wash, and pH elution fractions were titered. Phage displaying ITI-D1 were compared to phage that display EpiNE-7.
To test if ITI-D1E7-display phage bind hNE beads, pH elution profiles were measured. Aliquots of EpiNE-7, MA-ITI-D1, and MA-ITI-D1E7 display phage were incubated with hNE beads for three hours at room temperature (RT). The beads were washed and phage were eluted as described in U.S. Pat. No. 5,223,409, except that only three pH elutions were performed. […] The pH elution profile of EpiNE-7 display phage is as described. MA-ITI-D1E7 phage show a broad elution maximum around pH 5. The total fraction of MA-ITI-D1E7 phage obtained on pH elution from hNE beads was about 40-fold less than that obtained using EpiNE-7 display phage.
We characterized the binding properties to hNE-beads of MA-BITI and MA-BITI-E7 display phage using the extended pH fractionation procedure described in U.S. Pat. No. 5,223,409.
The binding capacity of hNE-beads for display phage varies among preparations of beads and with age for each individual preparation of beads. Thus, it is difficult to directly compare absolute yields of phage from elutions performed at different times. For example, the fraction of MA-EpiNE7 display phage recovered from hNE-beads varies two-fold among the experiments shown in Tables 14, 16, and 17. However, the shapes of the pH elution profiles are similar. It is possible to correct somewhat for variations in binding capacity of hNE-beads by normalizing display phage yields to the total yield of MA-EpiNE7 phage recovered from the beads in a concurrent elution. When the data shown in Tables 14, 16, and 17 are so normalized, the recoveries of display phage, relative to recovered MA-EpiNE7, are shown in Table 3.
ITI-D1 derivative BITI-E7-1222 is BITI-E7 with the alteration A11T. ITI-D1 derivative BITI-E7-141 is BITI-E7 with the alterations E31Q and Q34V; phage that display the presence of these proteins are MA-BITI-E7-1222 and MA-BITI-E7-141. We determined the binding properties to hNE-beads of MA-BITI-E7-1222 and MA-BITI-E7-141 display phage using the extended pH fractionation protocol described previously. The results are in Tables 18 (for MA-BITI-E7 and MA-BITI-E7-1222) and 19 (for MA-EpiNE7 and MA-BITI-E7-141). The pH elution profiles for the MA-BITI-E7 and MA-BITI-E7-1222 phage are almost identical.
Total pfu applied to the beads are in column two. The fractions of this input pfu recovered in each pH fraction of the abbreviated pH elution protocol (pH 7.0, pH 3.5, and pH 2.0) are in the next three columns. […]

[2] = biological target: T2, human neutrophil elastase (hNE) (Homo sapiens, UniProt P08246); conditions: ALBR83a,b, ODOM90, cited from earlier work
T2 sequence (P08246 30-267): T1 sequence (P08246 30-267)

trypsin = conditions: literature; cited from earlier work
chymotrypsin = conditions: literature; cited from earlier work
plasmin = plasmin (Homo sapiens, UniProt P00747); conditions: literature; cited from earlier work
Chain of plasmin (P00747 581-810 limits assumed, species assumed): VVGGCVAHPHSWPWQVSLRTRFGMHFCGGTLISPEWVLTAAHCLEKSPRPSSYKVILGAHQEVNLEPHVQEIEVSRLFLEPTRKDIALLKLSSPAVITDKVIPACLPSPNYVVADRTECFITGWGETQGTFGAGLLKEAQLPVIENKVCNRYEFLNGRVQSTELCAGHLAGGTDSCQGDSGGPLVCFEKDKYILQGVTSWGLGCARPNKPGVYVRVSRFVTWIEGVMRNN
Chain of plasmin (P00747 97-580 partner limits assumed, species assumed): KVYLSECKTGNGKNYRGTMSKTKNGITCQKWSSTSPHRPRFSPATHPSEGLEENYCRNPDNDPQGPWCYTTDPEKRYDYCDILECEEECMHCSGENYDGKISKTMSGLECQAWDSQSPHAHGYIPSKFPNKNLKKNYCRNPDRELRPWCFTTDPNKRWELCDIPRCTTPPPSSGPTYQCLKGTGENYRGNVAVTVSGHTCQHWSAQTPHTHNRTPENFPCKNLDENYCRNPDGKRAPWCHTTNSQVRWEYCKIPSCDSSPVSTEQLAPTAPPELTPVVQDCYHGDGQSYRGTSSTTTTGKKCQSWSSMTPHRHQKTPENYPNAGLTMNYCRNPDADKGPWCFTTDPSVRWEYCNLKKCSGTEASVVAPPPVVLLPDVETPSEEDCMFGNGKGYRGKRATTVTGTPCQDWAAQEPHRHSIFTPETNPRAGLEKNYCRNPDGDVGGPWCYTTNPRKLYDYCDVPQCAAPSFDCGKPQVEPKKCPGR

Fraction of Input bound [1]: <0.005% | pH Elution Maximum [1]: >6.0 pH
Substance: ITI-D1: first Kunitz domain of human inter-α-trypsin inhibitor light chain, SEQ ID NO 016 (KEDSCQLGYSAGPCMGMTSRYFYNGTSMACETFQYGGCMGNGNNFVTEKDCLQTCRTV; disulfide (positions not given here); also: disulfides drawn as lines in table, pairing not given here)
Ki ([2]; read-out: Ki for leukocyte elastase, lower limit): > 1 nM | Ki ([2]; read-out: Ki for leukocyte elastase, upper limit): < 1000 nM | affinity for / inhibition of trypsin (trypsin): lacks affinity | affinity for chymotrypsin (chymotrypsin): lacks affinity | affinity for plasmin (plasmin): lacks affinity
